Test results as given in the Immune Epitope Database (IEDB).

Experiments:
HLA-A*01:01 [1] = experiment: IEDB peptide-MHC binding, purified MHC/competitive/radioactivity; filed as Kd, often an IC50 or EC50 that approximates it; ≥ and ≤ were set here for values at or beyond the usual limits of such assays
HLA-A*24:02 = experiment: as above
HLA-A*26:01 [2] = experiment: as above
HLA-A*29:02 = experiment: as above
HLA-A*23:01 = experiment: as above
HLA-A*30:02 = experiment: as above
HLA-A*32:01 = experiment: as above
HLA-A*26:01 [3] = experiment: IEDB peptide-MHC binding, purified MHC/direct/fluorescence; filed as Kd, often an IC50 or EC50 that approximates it; ≥ and ≤ were set here for values at or beyond the usual limits of such assays
HLA-B*44:02 = experiment: IEDB peptide-MHC binding, purified MHC/competitive/radioactivity; filed as Kd, often an IC50 or EC50 that approximates it; ≥ and ≤ were set here for values at or beyond the usual limits of such assays; conditions: source organism: Dengue virus 4 Philippines/H241/1956
HLA-A*01:01 [4] = experiment: IEDB peptide-MHC binding, purified MHC/direct/fluorescence; filed as Kd, often an IC50 or EC50 that approximates it; ≥ and ≤ were set here for values at or beyond the usual limits of such assays; conditions: source organism: SARS-CoV1
HLA-A*03:01 [5] = experiment: as above; conditions: source organism: SARS-CoV1
HLA-B*15:01 = experiment: as above; conditions: source organism: SARS-CoV1
HLA-B*58:01 = experiment: as above; conditions: source organism: SARS-CoV1
HLA-A*11:01 [6] = experiment: as above; conditions: source organism: SARS-CoV1
HLA-A*03:01 [7] = experiment: IEDB peptide-MHC binding, purified MHC/competitive/radioactivity; filed as Kd, often an IC50 or EC50 that approximates it; ≥ and ≤ were set here for values at or beyond the usual limits of such assays; conditions: source organism: SARS coronavirus Tor2
HLA-A*68:01 = experiment: as above
HLA-A*33:01 = experiment: as above
HLA-A*31:01 = experiment: as above
HLA-A*11:01 [8] = experiment: as above
HLA-A*02:01 [9] = experiment: IEDB peptide-MHC binding, purified MHC/competitive/fluorescence; filed as Kd, often an IC50 or EC50 that approximates it; ≥ and ≤ were set here for values at or beyond the usual limits of such assays; conditions: source organism: West Nile virus
HLA-A*02:01 [10] = experiment: IEDB peptide-MHC binding, purified MHC/competitive/fluorescence; ≥ and ≤ were set here for values at or beyond the usual limits of such assays
[11] = source organism: Mammarenavirus tacaribeense
[12] = source organism: SARS coronavirus Tor2
[13] = source organism: Mammarenavirus whitewaterense
[14] = source organism: Vaccinia virus WR
[15] = source organism: Dengue virus 4 Philippines/H241/1956
[16] = source organism: Dengue virus 3 Martinique/1243/1999
[17] = source organism: Dengue virus 2 Jamaica/1409/1983
[18] = source organism: Dengue virus 1 Brazil/97-11/1997

Sequence: YCDPKRFFL
- Kd (HLA-A*01:01 [1]; [11]): ≥ 29100 nM
- Kd (HLA-A*24:02; [11]): 11300 nM
- Kd (HLA-A*26:01 [2]; [11]): ≥ 77900 nM
- Kd (HLA-A*29:02; [11]): ≥ 78900 nM
- Kd (HLA-A*23:01; [11]): 7530 nM
- Kd (HLA-A*30:02; [11]): ≥ 76900 nM

Sequence: GPDDQIGYY
- Kd (HLA-A*01:01 [1]; [12]): ≥ 79400 nM
- Kd (HLA-A*24:02; [12]): ≥ 77600 nM
- Kd (HLA-A*26:01 [2]; [12]): 11000 nM
- Kd (HLA-A*29:02; [12]): 6490 nM
- Kd (HLA-A*23:01; [12]): ≥ 77800 nM
- Kd (HLA-A*30:02; [12]): 2450 nM

Sequence: FYVSSIFLHL
- Kd (HLA-A*24:02; [13]): 114 nM
- Kd (HLA-A*29:02; [13]): 10.9 nM
- Kd (HLA-A*23:01; [13]): 8.55 nM

Sequence: MLMRVAVGI
- Kd (HLA-A*32:01; [14]): 0.692 nM

Sequence: TGCAVSWSGK
- Kd (HLA-A*32:01; [15]): 8440 nM

Sequence: EPILEYVVY
- Kd (HLA-A*26:01 [3]; source organism: Francisella tularensis subsp. tularensis FSC033): 827 nM

Sequence: HWVEITALI
- Kd (HLA-A*24:02; [15]): 317 nM
- Kd (HLA-A*23:01; [15]): 100 nM

Sequence: WFITQRNFF
- Kd (HLA-A*01:01 [1]; [12]): 1090 nM
- Kd (HLA-A*24:02; [12]): ≥ 32500 nM
- Kd (HLA-A*26:01 [2]; [12]): 172 nM
- Kd (HLA-A*29:02; [12]): 13.6 nM
- Kd (HLA-A*23:01; [12]): 2730 nM
- Kd (HLA-A*30:02; [12]): 137 nM

Sequence: VTYELRYTL
- Kd (HLA-A*32:01; source organism: Vaccinia virus Copenhagen): 11.9 nM

Sequence: KSLKKVYTF
- Kd (HLA-A*32:01; [14]): 0.485 nM

Sequence: DFAGKTVWF
- Kd (HLA-A*24:02; [16]): 3030 nM
- Kd (HLA-A*23:01; [16]): 6480 nM

Sequence: FAGKTVWFVP
- Kd (HLA-A*32:01; [16]): ≥ 26600 nM

Sequence: AETWMSSEG
- Kd (HLA-B*44:02): 425 nM

Sequence: TYVPSQERNF
- Kd (HLA-A*01:01 [1]; [12]): ≥ 70400 nM
- Kd (HLA-A*24:02; [12]): 72.3 nM
- Kd (HLA-A*26:01 [2]; [12]): ≥ 69700 nM
- Kd (HLA-A*29:02; [12]): 1310 nM
- Kd (HLA-A*23:01; [12]): 39.2 nM
- Kd (HLA-A*30:02; [12]): 14100 nM

Sequence: ASISSVLTI
- Kd (HLA-A*32:01; [14]): 13.3 nM

Sequence: VTPSGTWLTY
- Kd (HLA-A*01:01 [1]; [12]): 66.1 nM
- Kd (HLA-A*24:02; [12]): ≥ 57700 nM
- Kd (HLA-A*26:01 [2]; [12]): 392 nM
- Kd (HLA-A*29:02; [12]): 66.1 nM
- Kd (HLA-A*23:01; [12]): ≥ 49100 nM
- Kd (HLA-A*30:02; [12]): 45.3 nM

Sequence: SQSDTVFDH
- Kd (HLA-A*01:01 [1]; source organism: Variola virus): ≥ 23800 nM
- Kd (HLA-A*24:02; source organism: Variola virus): ≥ 77500 nM
- Kd (HLA-A*26:01 [2]; source organism: Variola virus): ≥ 77900 nM
- Kd (HLA-A*29:02; source organism: Variola virus): ≥ 48300 nM
- Kd (HLA-A*23:01; source organism: Variola virus): ≥ 44400 nM
- Kd (HLA-A*30:02; source organism: Variola virus): ≥ 76900 nM

Sequence: LSDDAVVCY
- Kd (HLA-A*24:02; [12]): ≥ 77600 nM
- Kd (HLA-A*26:01 [2]; [12]): ≥ 80300 nM
- Kd (HLA-A*29:02; [12]): 1000 nM
- Kd (HLA-A*23:01; [12]): ≥ 77800 nM
- Kd (HLA-A*30:02; [12]): 1450 nM
- Kd (HLA-A*01:01 [4]): 17.5 nM
- Kd (HLA-A*03:01 [5]): 9260 nM
- Kd (HLA-B*15:01): 474 nM
- Kd (HLA-B*58:01): 300 nM
- Kd (HLA-A*11:01 [6]): ≥ 22300 nM

Sequence: AYLRKHFSM
- Kd (HLA-A*01:01 [1]; [12]): ≥ 78100 nM
- Kd (HLA-A*24:02; [12]): ≥ 83300 nM
- Kd (HLA-A*26:01 [2]; [12]): ≥ 77900 nM
- Kd (HLA-A*29:02; [12]): 6290 nM
- Kd (HLA-A*23:01; [12]): ≥ 24400 nM
- Kd (HLA-A*30:02; [12]): ≥ 75000 nM

Sequence: TAEDMLNPNY
- Kd (HLA-A*01:01 [1]; [12]): 1040 nM
- Kd (HLA-A*24:02; [12]): ≥ 70300 nM
- Kd (HLA-A*26:01 [2]; [12]): 17600 nM
- Kd (HLA-A*29:02; [12]): 5500 nM
- Kd (HLA-A*23:01; [12]): ≥ 70000 nM
- Kd (HLA-A*30:02; [12]): 1070 nM

Sequence: PITAAAWYLW
- Kd (HLA-A*32:01; [17]): 1680 nM

Sequence: SIILEFFLM
- Kd (HLA-A*26:01 [2]; [18]): 4190 nM

Sequence: SAAAYFVGY
- Kd (HLA-A*01:01 [1]; [12]): 311 nM
- Kd (HLA-A*03:01 [7]): 89.7 nM
- Kd (HLA-A*68:01; [12]): 106 nM
- Kd (HLA-A*24:02; [12]): 3870 nM
- Kd (HLA-A*26:01 [2]; [12]): 85.5 nM
- Kd (HLA-A*29:02; [12]): 65.5 nM
- Kd (HLA-A*23:01; [12]): 6100 nM
- Kd (HLA-A*30:02; [12]): 17.7 nM
- Kd (HLA-A*33:01; [12]): ≥ 21500 nM
- Kd (HLA-A*31:01; [12]): ≥ 26300 nM
- Kd (HLA-A*11:01 [8]; [12]): 32.8 nM

Sequence: PTITQMNLKY
- Kd (HLA-A*01:01 [1]; [12]): 89.6 nM
- Kd (HLA-A*24:02; [12]): ≥ 70300 nM
- Kd (HLA-A*26:01 [2]; [12]): 827 nM
- Kd (HLA-A*29:02; [12]): 48.4 nM
- Kd (HLA-A*23:01; [12]): ≥ 70000 nM
- Kd (HLA-A*30:02; [12]): 1120 nM

Sequence: SGCVVSWKNK
- Kd (HLA-A*32:01; [17]): 9640 nM

Sequence: ETAEAMHAS
- Kd (HLA-A*26:01 [3]; source organism: Mycobacterium tuberculosis): 71 nM

Sequence: SLFGQRIEV
- Kd (HLA-A*02:01 [9]): 0.9 nM
- IC50 (HLA-A*02:01 [10]; source organism: West Nile virus NY-99): 204 nM

Sequence: YWISNGTGNI
- Kd (HLA-A*23:01; [16]): 165 nM

Sequence: TDNVHTWTEQ
- Kd (HLA-A*32:01; [17]): ≥ 37600 nM

Sequence: TVMDVISRR
- Kd (HLA-A*68:01; [18]): 7.98 nM
- Kd (HLA-A*26:01 [2]; [18]): 2340 nM
- Kd (HLA-A*33:01; [18]): 7.07 nM
- Kd (HLA-A*31:01; [18]): ≥ 39300 nM
- Kd (HLA-A*11:01 [8]; [18]): 30.2 nM

Sequence: VKRLEELLP
- IC50 (HLA-A*02:01 [10]; source organism: Zaire ebolavirus): ≥ 375000 nM

Sequence: KAADVTWEEE
- Kd (HLA-A*32:01; source organism: Dengue virus 3 Singapore/8120/1995): ≥ 33100 nM
